Data reported in patent US20250340595A1 (published 2025).
Values joined by “and” are separate entries in the source; they are usually repeats but may differ in a detail not shown here. Equal entries are not always repeated. Where two headings read alike, the source gives them in different places. Starred links: 1 amine or outer side, 2 acyl side, 3 side chain; linkers in the order of their positions; H or OH if unused. Positions of bridges follow the written chain, without caps; N, C: chain ends. Non-standard residues stand in square brackets, D forms with d. No end group written: not given here. *: point of attachment. TATB = O=C(C[*:1])N1CN(C(=O)C[*:2])CN(C(=O)C[*:3])C1; 1Nal = N[C@@H](Cc1cccc2ccccc12)C(=O)O; 2Nal = N[C@@H](Cc1ccc2ccccc2c1)C(=O)O; AzPro = azidopropyl, [N-]=[N+]=NCCC*; Hyp = O=C(O)[C@@H]1C[C@@H](O)CN1; tBuAla = CC(C)(C)C[C@H](N)C(=O)O; 4Pal = N[C@@H](Cc1ccncc1)C(=O)O; Tle = CC(C)(C)[C@H](N)C(=O)O; Aib = CC(C)(N)C(=O)O

Key:
[1] = biological target: T1, Human TfR1 protein (R&D Systems, 2474-TR or Acro Biosystems, CD1-H5243) (human, UniProt P02786 89-760); test: FP competition, competitor BCY15768
T1 sequence (P02786 89-760 limits assumed): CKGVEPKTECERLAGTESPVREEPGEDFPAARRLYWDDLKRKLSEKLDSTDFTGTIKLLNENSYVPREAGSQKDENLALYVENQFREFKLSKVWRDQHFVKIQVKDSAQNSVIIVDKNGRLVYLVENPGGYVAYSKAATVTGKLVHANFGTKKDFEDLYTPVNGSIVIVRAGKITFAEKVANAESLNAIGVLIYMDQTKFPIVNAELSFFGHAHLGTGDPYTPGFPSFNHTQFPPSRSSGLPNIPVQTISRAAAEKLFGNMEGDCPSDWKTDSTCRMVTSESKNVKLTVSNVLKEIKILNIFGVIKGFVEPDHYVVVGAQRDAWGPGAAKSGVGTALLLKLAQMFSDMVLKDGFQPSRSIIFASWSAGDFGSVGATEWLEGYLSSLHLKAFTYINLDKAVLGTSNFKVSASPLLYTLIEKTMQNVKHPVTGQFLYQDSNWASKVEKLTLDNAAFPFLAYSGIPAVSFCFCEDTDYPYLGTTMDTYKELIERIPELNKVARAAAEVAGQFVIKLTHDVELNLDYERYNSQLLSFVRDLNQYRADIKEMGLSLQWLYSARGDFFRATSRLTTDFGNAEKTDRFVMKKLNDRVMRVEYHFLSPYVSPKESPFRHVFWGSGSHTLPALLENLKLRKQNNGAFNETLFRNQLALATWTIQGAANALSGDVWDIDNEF

[2] = biological target: T2, Recombinant human TfR1, His6-tagged (a.a. 89-760) (human, UniProt P02786 89-760); test: SPR, TfR1 on chip
T2 construct: range 89-760; captured and coupled on an NTA chip for SPR; also called transferrin receptor 1; CD71
T2 sequence (P02786 89-760 limits assumed): as above

[3] = biological target: T3, Recombinant cynomolgus TfR1, His6-tagged (a.a. 89-760) (cynomolgus, UniProt H9EXL1 89-760 (rhesus entry)); test: SPR, TfR1 on chip
T3 construct: range 89-760; same product number named for FP and SPR; also called Cyno TfR1; Acro Biosystems TFR-C524a
T3 sequence (chain, as listed by the source): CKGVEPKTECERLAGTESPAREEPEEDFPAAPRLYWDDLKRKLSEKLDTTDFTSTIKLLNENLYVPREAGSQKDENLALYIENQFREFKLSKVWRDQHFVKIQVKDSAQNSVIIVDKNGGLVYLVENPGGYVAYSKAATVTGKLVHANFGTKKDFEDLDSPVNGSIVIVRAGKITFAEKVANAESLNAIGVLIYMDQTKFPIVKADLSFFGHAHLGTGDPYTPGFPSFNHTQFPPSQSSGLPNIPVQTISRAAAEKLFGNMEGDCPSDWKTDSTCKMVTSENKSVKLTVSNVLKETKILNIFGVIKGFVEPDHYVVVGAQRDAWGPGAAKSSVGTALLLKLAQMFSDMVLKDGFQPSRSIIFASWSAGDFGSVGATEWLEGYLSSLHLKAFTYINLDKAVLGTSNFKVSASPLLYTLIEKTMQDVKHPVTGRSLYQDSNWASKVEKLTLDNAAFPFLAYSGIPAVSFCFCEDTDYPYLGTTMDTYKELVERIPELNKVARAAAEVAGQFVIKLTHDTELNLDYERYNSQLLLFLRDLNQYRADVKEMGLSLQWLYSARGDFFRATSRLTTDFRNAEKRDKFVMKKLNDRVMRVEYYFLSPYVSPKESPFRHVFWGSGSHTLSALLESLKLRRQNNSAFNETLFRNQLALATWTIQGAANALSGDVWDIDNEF

[4] = biological target: T1, Human TfR1 protein (R&D Systems, …); test: FP competition, competitor BCY15768; remark: listed apart in the source

Binder	Ki [1] [nM]	Kd [2] [nM]	Kd [3]	Ki [4] [nM]
ACYLPDWXCGDEYCA (not fully specified; 3 Cys on TATB; core as printed CYLPDW[tBuAla]CGDEYC) [BCY15648]	107	–	–	–
ESFCSPDAHLGCISYCA (linker 4-12-16 via TATB) [BCY17113]	103	308	1660 nM	103
Ac-CS[Hyp]DAHLGCISYC (linker 1-9-13 via TATB) [BCY17989]	30	–	–	–
NEVCSPDAHLGCISYCA (linker 4-12-16 via TATB (inferred)) [BCY17112]	–	–	2600 nM	–
ACSPDAHLGCISYCEPW (linker 2-10-14 via TATB (inferred)) [BCY17114]	–	–	845 nM	–
TYMNCPPDAHLGCISYCA (linker 5-13-17 via TATB (inferred)) [BCY17117]	37	4.2	805 nM	37
ACSPDAHLGCIS[4Pal]CA (linker 2-10-14 via TATB) [BCY16032]	654	305	30000 nM	654
WGKSCPIDAHLGCISYCA (linker 5-13-17 via TATB (inferred)) [BCY17116]	75	1	474 nM	75
Ac-CSPDAHLGCISYCE[dP]W (linker 1-9-13 via TATB (inferred)) [BCY18038]	–	–	1650 nM	–
CPXDAYLGCXSYCEPW (3 Cys on TATB; N-terminal acetyl (Ac); core as printed CP[HyP]DAYLGC[tBuGly]SYC) [BCY17995]	2	3.4	–	5
ACSPDAHLGCIS[2Nal]CA (linker 2-10-14 via TATB) [BCY16031]	119	68	6480 nM	119
Ac-CPPDAHLGCISWC-NH2 (linker 1-9-13 via TATB; SMILES CC[C@H](C)[C@@H]1NC(=O)[C@@H]2CSCC(=O)N3CN(CN(C3)C(=O)CSC[C@H](NC(C)=O)C(=O)N3CCC[C@H]3C(=O)N3CCC[C@H]3C(=O)N[C@@H](CC(=O)O)C(=O)N[C@@H](C)C(=O)N[C@@H](Cc3c[nH]cn3)C(=O)N[C@@H](CC(C)C)C(=O)NCC(=O)N2)C(=O)CSC[C@@H](C(N)=O)NC(=O)[C@H](Cc2c[nH]c3ccccc23)NC(=O)[C@H](CO)NC1=O) [BCY15889]	40	–	–	–
Ac-CP[Hyp]DAYLGCISYC (linker 1-9-13 via TATB) [BCY17990]	–	–	–	8
ACSPDAHLGCISYCPIVH (linker 2-10-14 via TATB (inferred)) [BCY17120]	–	–	1260 nM	–
Ac-CSPDAHLGCISYCEPW-NH2 (linker 1-9-13 via TATB (inferred)) [BCY17994]	8	–	688 nM	8
Ac-CSPDAHLGCISYC (linker 1-9-13 via TATB) [BCY15891]	67	46	3990 nM	94
Ac-CSADAHLGCISYC (linker 1-9-13 via TATB (inferred)) [BCY17987]	42	50	5140 nM	383
Ac-CAPDAHLGCISYC (linker 1-9-13 via TATB (inferred)) [BCY17986]	–	–	4660 nM	–
NWNCSPDAHLGCISYCK (3 Cys on TATB; N-terminal acetyl (Ac); C-terminal [K(N3)] 6-azido lysine) [BCY17871]	–	–	–	9
Ac-N[1Nal]NCSPDAHLGCISYC (linker 4-12-16 via TATB) [BCY18034]	–	–	2080 nM	–
ACSPDAHLGCIS[1Nal]CA (linker 2-10-14 via TATB) [BCY16029]	–	–	5480 nM	–
NWNCPXDAYLGCXSYC (3 Cys on TATB; N-terminal acetyl (Ac); core as printed CP[HyP]DAYLGC[tBuGly]SYC) [BCY17993]	3	9	235 nM	5
IDSNCPNDAHLGCISYCA (linker 5-13-17 via TATB (inferred)) [BCY17118]	70	120	1960 nM	70

Binder	Ki [1] [nM]	Kd [2] [nM]	Kd [3]	Ki [4] [nM]
ACPXDAHLGCISYCA (3 Cys on TATB; core as printed CP[Aib]DAHLGCISYC) [BCY16550]	56	18	682 nM	56
ACSPDAYLGC[Tle]SYCA (linker 2-10-14 via TATB) [BCY16966]	–	–	1900 nM	–
ACPPDAYLGC[Tle]SYCA (linker 2-10-14 via TATB) [BCY16964]	–	–	514 nM	–
CPXDAYLGCXSYC (3 Cys on TATB; N-terminal acetyl (Ac); core as printed CP[HyP]DAYLGC[tBuGly]SYC) [BCY17991]	2	3.4	35 nM	3
NWNCPXDAYLGCXSYC (3 Cys on TATB; core as printed CP[HyP]DAYLGC[tBuGly]SYC) [BCY18033]	4	–	589 nM	6
CPXDAYLGCXSYC (3 Cys on TATA; N-terminal acetyl (Ac); core as printed CP[HyP]DAYLGC[tBuGly]SYC, Same peptide as BCY17991 but cyclised on TATA) [BCY20546]	–	1660	–	–
ACSPDAHLGCXSYCA (3 Cys on TATB; core as printed CSPDAHLGC[B-Melle]SYC (beta-methyl isoleucine)) [BCY16040]	20000	–	–	–
NWNCSPDAHLGCISYC (3 Cys on TATB; N-terminal acetyl (Ac); [NMeTrp] in N-terminal extension) [BCY18036]	90	422	7310 nM	–
ACSPDAHLGCISYCPHP-NH2 (linker 2-10-14 via TATB (inferred)) [BCY17115]	30	60	1240 nM	30
HWMCSPDAHLGCISYCA (linker 4-12-16 via TATB) [BCY17110]	22	15	232 nM	22
CSPDAHLGCISYC (3 Cys on a scaffold (TATA or TATB assumed by the filing for non-inhibitory peptides; not stated for this one)) [BCY15935]	300	–	–	300
Ac-N[dW]NCSPDAHLGCISYC (linker 4-12-16 via TATB (inferred)) [BCY18035]	–	–	10300 nM	–
AzPro-CSPDAHLGCISYC (linker 1-9-13 via TATB (inferred)) [BCY17869]	–	–	–	30
HTSCSPDAHLGCISYCA (linker 4-12-16 via TATB) [BCY17111]	86	8.3	907 nM	86
NWNCSPDAHLGCISYCK (3 Cys on TATB; C-terminal [K(N3)] 6-azido lysine) [BCY17870]	–	–	–	9
NWNCSPDAHLGCISYCA (linker 4-12-16 via TATB) [BCY17109]	–	–	281 nM and 535 nM	–
ACSPDAYLGC[tBuAla]SYCA (linker 2-10-14 via TATB) [BCY16558]	1620	20000	50000 nM	1620
Ac-NWNCSPDAHLGCISYC (linker 4-12-16 via TATB (inferred)) [BCY17992]	–	–	535 nM	–
ACSPDAHLGCISYCA (linker 2-10-14 via TATB) [BCY15468]	–	–	–	103
ACP[Aib]DAYLGC[Tle]SYCA (linker 2-10-14 via TATB) [BCY16963]	–	–	501 nM	–
ACS[Aib]DAHLGC[Tle]SYCA (linker 2-10-14 via TATB) [BCY16753]	48	12	1700 nM	48
ACP[Aib]DAHLGC[Tle]SYCA (linker 2-10-14 via TATB) [BCY16962]	36	6.1	599 nM	36
